Experimental data reported in patent US20220127628A1.
“And” between values parts separate entries of the source, which are not always exact repeats. Identical values can stand only once.

B1: VHH ENB-1D11 (VHH)
VHH: EVQLVESGGGLVQTGGSLRLSCTASGTIDMTYGLIWYRQAPGKERELVASIRRDGRTNYADSVKGRFTISIDNAKNSIHLQMNSLKPDDTARYYCNSPYHALWGQGTQVTVSS
B2: VHH ENB-1A4 (VHH)
VHH: EVQLVESGGGLVQAGGSLRLSCAASGSIFSTNVMGWYRQAPGKQREFVAGITIGGTARYPDSVKGRFTISRDNTQNTVYLQMNNLKPEDTAVYYCNAVLPSDQRRWSWGQGTQVTVSS

Target: recombinant NetB (wild type NetB) toxin of C. perfringens (Clostridium perfringens)
Assay: cell-based or functional assay

| Binder | lowest VHH concentration neutralizing NetB haemolysis |
| --- | --- |
| B1 | 1.25 µM and 0.625 µM |
| B2 | 1.25 µM and 0.625 µM |
